For 2 substances, percent reduction of binding against FL apoE and percent reduction of insulin-IR binding results are on record in paper PMC5621659.

Test in all cases: ELISA
For orientation: An ELISA detects its analyte on a solid surface through an enzyme-linked reagent.

Assay [1] has as its target C-terminal truncated apoE4 (aa1-186).
Assay [2] deals with C-terminal truncated apoE3 (aa1-186).
The target of assay [3] is recombinant human insulin receptor (IR) (human) (UniProt P06213).

Turning to “recombinant human insulin receptor (IR) (from UniProt P06213 28-1382)”, the percent reduction of binding against FL apoE in assay [1] was determined as 30%; in assay [2] it was 50%. For “recombinant human apoE4 (from UniProt P02649 19-317) (natural protein)”, the percent reduction of insulin-IR binding at 16 μg/ml in assay [3] was 50%.
